These results are taken from US8889621B2, “Inhibiting binding of FGF23 to the binary FGFR-Klotho complex for the treatment of hypophosphatemia” (New York University, priority 2009, dated 2014).

Peptide text beside a SMILES is read from it.

The test deals with T1, binary FGFR1c-Klotho complex (UniProt O35082+P11362).
T1 construct: The ectodomain of murine Klotho (A35 to K982) was purified from culture media; FLAG (C); made in house; host or cells: E. coli (FGFR1c, FGF23); HEK293 (Klotho ectodomain)
T1 sequence (P11362 142-365): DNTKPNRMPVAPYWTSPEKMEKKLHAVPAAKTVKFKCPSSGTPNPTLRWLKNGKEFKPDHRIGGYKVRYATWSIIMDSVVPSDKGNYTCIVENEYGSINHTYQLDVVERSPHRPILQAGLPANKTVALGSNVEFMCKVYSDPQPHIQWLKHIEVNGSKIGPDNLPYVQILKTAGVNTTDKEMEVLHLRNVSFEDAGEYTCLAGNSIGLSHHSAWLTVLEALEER
T1 sequence (O35082 35-982): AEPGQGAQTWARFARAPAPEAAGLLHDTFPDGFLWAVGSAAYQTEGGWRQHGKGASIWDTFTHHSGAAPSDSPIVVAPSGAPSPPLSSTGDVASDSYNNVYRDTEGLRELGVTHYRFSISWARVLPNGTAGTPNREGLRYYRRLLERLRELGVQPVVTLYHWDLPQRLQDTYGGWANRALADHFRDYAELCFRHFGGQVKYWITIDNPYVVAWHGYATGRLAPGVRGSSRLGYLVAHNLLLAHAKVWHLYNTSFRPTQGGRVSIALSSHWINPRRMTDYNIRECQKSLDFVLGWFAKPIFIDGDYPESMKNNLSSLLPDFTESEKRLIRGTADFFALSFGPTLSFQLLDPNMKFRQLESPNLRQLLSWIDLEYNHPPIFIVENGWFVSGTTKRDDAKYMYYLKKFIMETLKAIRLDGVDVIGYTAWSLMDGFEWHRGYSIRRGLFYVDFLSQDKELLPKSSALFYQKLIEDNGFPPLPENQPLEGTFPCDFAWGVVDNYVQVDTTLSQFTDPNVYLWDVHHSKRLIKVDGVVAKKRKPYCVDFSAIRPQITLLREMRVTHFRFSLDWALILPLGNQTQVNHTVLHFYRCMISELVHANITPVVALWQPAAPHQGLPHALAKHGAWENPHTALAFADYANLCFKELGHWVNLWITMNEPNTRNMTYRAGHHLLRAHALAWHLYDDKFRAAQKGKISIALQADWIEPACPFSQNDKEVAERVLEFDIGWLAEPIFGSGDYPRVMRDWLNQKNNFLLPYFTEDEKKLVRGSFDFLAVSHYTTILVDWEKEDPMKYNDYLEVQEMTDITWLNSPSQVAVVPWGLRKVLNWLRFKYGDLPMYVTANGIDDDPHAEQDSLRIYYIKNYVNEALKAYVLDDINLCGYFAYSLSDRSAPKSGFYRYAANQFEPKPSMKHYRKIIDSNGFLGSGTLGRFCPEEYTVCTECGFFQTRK
The experiment in a line: SPR competition: FGFR1c-Klotho binding to immobilized FGF23^28-251. Further details: species or system human FGFR1c, murine Klotho. Conditions: for inhibition of FGFR1c-Klotho binding to immobilized FGF23^28-251: FGF21^168-209 at molar ratios of 6:1 and 10:1; for rightward shift of dose-response curve compared to full-length FGF23: FIG. 3D. As to the method:
A variety of interaction or binding assays can be used to determine that an agent specifically binds the binary FGFR-Klotho complex, such as the SPR interaction analysis described below. One aspect of the present invention utilizes SPR analysis of FGF23 protein/peptide binding to the binary FGFR-Klotho complex. The SPR analysis involved FGF23 protein/peptide immobilization by amine coupling on flow channels of a chip. Proteins were injected over the chip at a flow rate of 50 μl min^−1, and at the end of each protein injection (180 s), HBS-EP buffer (10 mM HEPES-NaOH, pH 7.4, 150 mM NaCl, 3 mM EDTA, 0.005% (v/v) polysorbate 20; 50 μl min^−1) was flowed over the chip to monitor dissociation for 180 s. The chip surface was then regenerated by injecting 50 μl of 2.0 M NaCl in 10 mM sodium acetate, pH 4.5. […] For each protein injection over a FGF23 protein/peptide chip, the nonspecific responses from the FHF1B control flow channel were subtracted from the responses recorded for the flow channel onto which FGF23 protein/peptide was immobilized. To analyze FGF23 binding to the binary FGFR1c-Klotho complex, FGF23^28-251 was coupled to a chip, and increasing concentrations of 1:1 complex of the ectodomains of FGFR1c and Klotho in HBS-EP buffer were passed over the chip. To measure binding of the C-terminal tail of FGF23 to the binary FGFR1c-Klotho complex, FGF23^180-251 was immobilized on a chip, and increasing concentrations of 1:1 complex of the ectodomains of FGFR1c and Klotho in HBS-EP buffer were passed over the chip. To examine whether the C-terminal tail of FGF23 can compete with full-length FGF23 for binding to the binary FGFR1c-Klotho complex, FGF23^28-251 was immobilized on a chip. Increasing concentrations of FGF23^180-251 were mixed with a fixed concentration of 1:1 complex of the ectodomains of FGFR1c and Klotho in HBS-EP buffer, and the mixtures were passed over the chip. As a control, competition of FGF23 in solution with immobilized FGF23 for binding to the binary FGFR1c-Klotho complex was studied. Increasing concentrations of FGF23^28-251 were mixed with a fixed concentration of 1:1 complex of the ectodomains of FGFR1c and Klotho in HBS-EP buffer, and the mixtures were passed over the FGF23 chip. Competition of the FGF23 C-terminal tail peptide with full-length FGF23 for binding to the binary FGFR1c-Klotho complex was also studied using the “reverse” SPR assay format, where FGF23^180-251 was immobilized on a chip and mixtures of a fixed concentration of 1:1 complex of the ectodomains of FGFR1c and Klotho with increasing concentrations of FGF23^28-251 were passed over the chip. As a control, competition of FGF23 C-terminal tail peptide in solution with immobilized FGF23 C-terminal tail peptide for binding to the binary FGFR1c-Klotho complex was analyzed. Increasing concentrations of FGF23^180-251 were mixed with a fixed concentration of 1:1 complex of the ectodomains of FGFR1c and Klotho in HBS-EP buffer, and the mixtures were passed over the FGF23^180-251 chip. To verify the specificity of the interaction between the FGF23 C-terminal tail and the FGFR1c-Klotho complex, FGF23^28-251 was immobilized on a chip. Increasing concentrations of FGF21^168-209 were mixed with a fixed concentration of 1:1 complex of the ectodomains of FGFR1c and Klotho in HBS-EP buffer, and the mixtures were passed over the chip. In addition, the ability of the FGF23 C-terminal tail peptide to interfere with binary complex formation between βKlotho and either FGF19 or FGF21 was tested, as was its ability to interfere with ternary complex formation between βKlotho, FGFR, and either FGF19 or FGF21. FGF19^23-216 and FGF21^29-209 were immobilized on two flow channels of a chip. FGF23^180-251 and the ectodomain of βKlotho were mixed at a molar ratio of 2:1, and the mixture was injected over the chip. Next, FGF23^180-251 and the 1:1 complex of the ectodomains of FGFR1c and βKlotho were mixed at a molar ratio of 10:1, and the mixture was passed over the FGF19/FGF21 chip. […]

Regarding `CSCC[C@H](NC(=O)[C@H](CCCNC(=N)N)NC(=O)[C@H](C)NC(=O)[C@H](CCCNC(=N)N)NC(=O)[C@@H]1CCCN1C(=O)[C@H](CCCCN)NC(=O)[C@H](CC(C)C)NC(=O)[C@@H](NC(=O)[C@H](CC(N)=O)NC(=O)[C@H](CC(C)C)NC(=O)[C@@H]1CCCN1C(=O)[C@H](CC(=O)O)NC(=O)[C@H](CCCNC(=N)N)NC(=O)[C@H](CCC(=O)O)NC(=O)[C@H](CO)NC(=O)[C@H](CC(=O)O)NC(=O)[C@H](CC(=O)O)NC(=O)[C@H](CCC(=O)O)NC(=O)[C@H](C)NC(=O)[C@@H](N)CO)C(C)C)C(=O)N[C@H](C(=O)N1CCC[C@H]1C(=O)N[C@@H](C)C(=O)N1CCC[C@H]1C(=O)N[C@@H](C)C(=O)N[C@@H](CO)C(=O)O)[C@@H](C)O` [FGF23^180-205] (H-SAEDDSERDPLNVLKPRARMTPAPAS-OH; N-terminus and C-terminus assumed), the “inhibition of FGFR1c-Klotho binding to immobilized FGF23^28-251” value was “able to compete, in a dose-dependent fashion” and the “rightward shift of dose-response curve compared to full-length FGF23” value was approximately 6 fold. Also, the “molar excess over FGFR1c-Klotho complex at half-maximum inhibition of FGFR1c-Klotho binding to FGF23^28-251” value (FGF23^28-251 chip) is 5.7 fold molar excess.

B1: FGF23^180-251: 72-amino acid C-terminal tail of human FGF23 (S180 to I251), expressed in E. coli (protein, listed as Homo sapiens)
chain: SAEDDSERDPLNVLKPRARMTPAPASCSQELPSAEDNSPMASDPLGVVRGGRVNTHAGGTGPEGCRPFAKFI
B1: the “inhibition of FGFR1c-Klotho binding to immobilized FGF23^28-251” value is reported as “competed, in a dose-dependent fashion” and the “rightward shift of dose-response curve compared to full-length FGF23” value is “about 3 fold”. The “molar excess over FGFR1c-Klotho complex at half-maximum inhibition of FGFR1c-Klotho binding to FGF23^28-251” value (FGF23^28-251 chip) is 3.3 fold molar excess.

B2: FGF23^28-251: human FGF23 (A28 to I251), bioactive full-length ligand expressed in E. coli (protein, listed as Homo sapiens)
chain: ASPLLGSSWGGLIHLYTATARNSYHLQIHKNGHVDGAPHQTIYSALMIRSEDAGFVVITGVMSRRYLCMDFRGNIFGSHYFDPENCRFQHQTLENGYDVYHSPQYHFLVSLGRAKRAFLPGMNPPPYSQFLSRRNEIPLIHFNTPIPRRHTRSAEDDSERDPLNVLKPRARMTPAPASCSQELPSAEDNSPMASDPLGVVRGGRVNTHAGGTGPEGCRPFAKFI
Regarding B2, the “amount relative to FGFR1c-Klotho complex yielding 50% inhibition of binding to immobilized FGF23^28-251” value (FGF23^28-251 chip, control) was “less than an equimolar amount”.
